From patent publication US20150239980A1 (NEOTOPE BOSCIENCES, published 2015)

Columns and labels:
[1] = molecular target: T1, recombinant human IgG1 Fc (R&D systems) (human, UniProt P01857-1 100-330 = IgG part); assay: SPR, Biacore T200
T1 construct: domain: Fc; negative control surface; also called hIgG1-Fc

[2] = molecular target: T2, recombinant human laminin 511 (Biolamina) (human, UniProt O15230 36-3695; P07942 22-1786; P11047 34-1609); assay: flow cytometry, human MCAM CHO cells, pan-laminin antibody
T2 construct: negative control; also called laminin 10 (α5β1γ1)

binding result [1]	binding result [2]	Binder
no binding (tested: 5-175 nM)		Recombinant human laminin-α4 (R&D systems) (ligand, UniProt Q16363-2 826-1816, looked up, also called laminin α-4 chain) QVSMMFDGQSAVEVHSRTSMDDLKAFTSLSLYMKPPVKRPELTETADQFILYLGSKNAKKEYMGLAIKNDNLVYVYNLGTKDVEIPLDSKPVSSWPAYFSIVKIERVGKHGKVFLTVPSLSSTAEEKFIKKGEFSGDDSLLDLDPEDTVFYVGGVPSNFKLPTSLNLPGFVGCLELATLNNDVISLYNFKHIYNMDPSTSVPCARDKLAFTQSRAASYFFDGSGYAVVRDITRRGKFGQVTRFDIEVRTPADNGLILLMVNGSMFFRLEMRNGYLHVFYDFGFSGGPVHLEDTLKKAQINDAKYHEISIIYHNDKKMILVVDRRHVKSMDNEKMKIPFTDIYIGGAPPEILQSRALRAHLPLDINFRGCMKGFQFQKKDFNLLEQTETLGVGYGCPEDSLISRRAYFNGQSFIASIQKISFFDGFEGGFNFRTLQPNGLLFYYASGSDVFSISLDNGTVIMDVKGIKVQSVDKQYNDGLSHFVISSVSPTRYELIVDKSRVGSKNPTKGKIEQTQASEKKFYFGGSPISAQYANFTGCISNAYFTRVDRDVEVEDFQRYTEKVHTSLYECPIESSPLFLLHKKGKNLSKPKASQNKKGGKSKDAPSWDPVALKLPERNTPRNSHCHLSNSPRAIEHAYQYGGTANSRQEFEHLKGDFGAKSQFSIRLRTRSSHGMIFYVSDQEENDFMTLFLAHGRLVYMFNVGHKKLKIRSQEKYNDGLWHDVIFIRERSSGRLVIDGLRVLEESLPPTEATWKIKGPIYLGGVAPGKAVKNVQINSIYSFSGCLSNLQLNGASITSASQTFSVTPCFEGPMETGTYFSTEGGYVVLDESFNIGLKFEIAFEVRPRSSSGTLVHGHSVNGEYLNVHMKNGQVIVKVNNGIRDFSTSVTPKQSLCDGRWHRITVIRDSNVVQLDVDSEVNHVVGPLNPKPIDHREPVFVGGVPESLLTPRLAPSKPFTGCIRHFVIDGHPVSFSKAALVSGAVSINSCPAA
	no binding (tested: 10 µg/ml)	human MCAM (melanoma cell adhesion molecule) expressed on transfected CHO cells (receptor, also called hMCAM; CD146) VPGEAEQPAPELVEVEVGSTALLKCGLSQSQGNLSHVDWFSVHKEKRTLIFRVRQGQGQSEPGEYEQRLSLQDRGATLALTQVTPQDERIFLCQGKRPRSQEYRIQLRVYKAPEEPNIQVNPLGIPVNSKEPEEVATCVGRNGYPIPQVIWYKNGRPLKEEKNRVHIQSSQTVESSGLYTLQSILKAQLVKEDKDAQFYCELNYRLPSGNHMKESREVTVPVFYPTEKVWLEVEPVGMLKEGDRVEIRCLADGNPPPHFSISKGNPSTREAEEETTNDNGVLVLEPARKEHSGRYECQAWNLDTMISLLSEPQELLVNYVSDVRVSPAAPERQEGSSLTLTCEAESSQDLEFQWLREETDQVLERGPVLQLHDLKREAGGGYRCVASVPSIPGLNRTQLVKLAIFGPPWMAFKERKVWVKENMVLNLSCEASGHPRPTISWNVNGTASEGDQDPQRVLSTLNVLVTPELLETGVECTASNDLGKNTSILFLELVNLTTLTPDSNTTTGLSTSTASPHTRANSTSTERKLPEPESRGVVIVAVIVCILVLAVLGAVLYFLYKKGKLPCRRSGKQEITLPPSRKTELVVEVKSDKLPEEMGLLQGSSGDKRAPGDQGEKYIDLRH
